Laboratory results as given in patent publication US20110008376A1.

Experiments:
[1] = biological target: cdH5-0 (dH5-0 supernatant after 10 min at 16,000-18,000*g) (influenza A virus H5N1 strain A/Vietnam/1203/04); assay: ELISA, immobilized H5 form, excess epsilon-amino caproic acid
[2] = biological target: fdH5-0 (ultrafiltrated dH5-0, flow-through of a 1,000 kDa cut-off filter) (influenza A virus H5N1 strain A/Vietnam/1203/04); assay: as above
[3] = biological target: dH5-II (misfolded H5, heat cycling at pH 2) (influenza A virus H5N1 strain A/Vietnam/1203/04); assay: as above
[4] = biological target: dH5-0 (hemagglutinin 5 of H5N1 strain A/Vietnam/1203/04 as supplied by Protein Sciences) (influenza A virus H5N1 strain A/Vietnam/1203/04); assay: as above
[5] = biological target: cdH5-0 (dH5-0 supernatant after 10 min at 16,000-18,000*g) (influenza A virus H5N1 strain A/Vietnam/1203/04); assay: ELISA, immobilized H5 form, normalized to cdH5-0
[6] = biological target: fdH5-0 (ultrafiltrated dH5-0, flow-through of a 1,000 kDa cut-off filter) (influenza A virus H5N1 strain A/Vietnam/1203/04); assay: ELISA, immobilized H5 form, normalized to cdH5-0
[7] = biological target: dH5-II (misfolded H5, heat cycling at pH 2) (influenza A virus H5N1 strain A/Vietnam/1203/04); assay: ELISA, immobilized H5 form, normalized to cdH5-0
[8] = biological target: dH5-III (misfolded H5, about 16 h at 47.5 C) (influenza A virus H5N1 strain A/Vietnam/1203/04); assay: ELISA, immobilized H5 form, normalized to cdH5-0
[9] = biological target: dH5-I (misfolded H5, heat cycling at pH 7) (influenza A virus H5N1 strain A/Vietnam/1203/04); assay: ELISA, immobilized H5 form, normalized to cdH5-0
[10] = biological target: dH5-0 (hemagglutinin 5 of H5N1 strain A/Vietnam/1203/04 as supplied by Protein Sciences) (influenza A virus H5N1 strain A/Vietnam/1203/04); assay: ELISA, immobilized H5 form, normalized to cdH5-0; average of two measurements
[11] = biological target: nOVA (untreated ovalbumin, 1 mg/ml in PBS) (chicken) (UniProt P01012); assay: ELISA, immobilized OVA form, normalized to nOVA
Sequence of UniProt P01012 (P01012 2-386 limits assumed): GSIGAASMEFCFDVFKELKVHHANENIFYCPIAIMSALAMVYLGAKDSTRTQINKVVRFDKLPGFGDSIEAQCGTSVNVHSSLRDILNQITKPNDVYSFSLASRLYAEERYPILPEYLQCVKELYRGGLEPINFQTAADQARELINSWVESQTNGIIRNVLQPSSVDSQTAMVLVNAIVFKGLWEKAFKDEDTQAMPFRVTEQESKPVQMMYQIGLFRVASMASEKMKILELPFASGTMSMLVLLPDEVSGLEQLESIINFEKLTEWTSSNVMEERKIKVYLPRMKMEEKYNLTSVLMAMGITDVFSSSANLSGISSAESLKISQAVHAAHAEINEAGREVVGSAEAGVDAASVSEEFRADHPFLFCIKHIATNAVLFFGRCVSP

Row | Substance | Bmax [1] | Kd [1] | Bmax [2] | Kd [2] | Bmax [3] | Kd [3] | Bmax [4] | Kd [4] | Normalized affinity, kD (%) [5] | Normalized affinity, kD (%) [6] | Normalized affinity, kD (%) [7] | Normalized affinity, kD (%) [8] | Normalized affinity, kD (%) [9] | Normalized affinity, kD (%) [10] | Normalized affinity, kD (%) [11]
1 | tissue type plasminogen activator (tPA) (from UniProt P00750 36-562) (enzyme) | 0.36 | 102 nM | 0.37 | 342 nM | 0.07 | 19 nM | 0.32 | 96 nM |  |  |  |  |  |  | 
2 | fourth and fifth finger domain of fibronectin (Fn F4-5) (from UniProt P02751 183-274) |  |  |  |  |  |  |  |  | 100% | 69% | 88% | 6% | 0% | 103% | 100%
